Literature values, collected in publication PMC3238542.
Like-named read-outs stand apart in the source and are kept apart here.

Tests used:
[1] = target: pyruvate carboxylase (UniProt P11498); experiment: enzyme inhibition
[2] = target: pyruvate carboxylase (UniProt P11498)

Chain of UniProt P11498 (P11498 21-1178): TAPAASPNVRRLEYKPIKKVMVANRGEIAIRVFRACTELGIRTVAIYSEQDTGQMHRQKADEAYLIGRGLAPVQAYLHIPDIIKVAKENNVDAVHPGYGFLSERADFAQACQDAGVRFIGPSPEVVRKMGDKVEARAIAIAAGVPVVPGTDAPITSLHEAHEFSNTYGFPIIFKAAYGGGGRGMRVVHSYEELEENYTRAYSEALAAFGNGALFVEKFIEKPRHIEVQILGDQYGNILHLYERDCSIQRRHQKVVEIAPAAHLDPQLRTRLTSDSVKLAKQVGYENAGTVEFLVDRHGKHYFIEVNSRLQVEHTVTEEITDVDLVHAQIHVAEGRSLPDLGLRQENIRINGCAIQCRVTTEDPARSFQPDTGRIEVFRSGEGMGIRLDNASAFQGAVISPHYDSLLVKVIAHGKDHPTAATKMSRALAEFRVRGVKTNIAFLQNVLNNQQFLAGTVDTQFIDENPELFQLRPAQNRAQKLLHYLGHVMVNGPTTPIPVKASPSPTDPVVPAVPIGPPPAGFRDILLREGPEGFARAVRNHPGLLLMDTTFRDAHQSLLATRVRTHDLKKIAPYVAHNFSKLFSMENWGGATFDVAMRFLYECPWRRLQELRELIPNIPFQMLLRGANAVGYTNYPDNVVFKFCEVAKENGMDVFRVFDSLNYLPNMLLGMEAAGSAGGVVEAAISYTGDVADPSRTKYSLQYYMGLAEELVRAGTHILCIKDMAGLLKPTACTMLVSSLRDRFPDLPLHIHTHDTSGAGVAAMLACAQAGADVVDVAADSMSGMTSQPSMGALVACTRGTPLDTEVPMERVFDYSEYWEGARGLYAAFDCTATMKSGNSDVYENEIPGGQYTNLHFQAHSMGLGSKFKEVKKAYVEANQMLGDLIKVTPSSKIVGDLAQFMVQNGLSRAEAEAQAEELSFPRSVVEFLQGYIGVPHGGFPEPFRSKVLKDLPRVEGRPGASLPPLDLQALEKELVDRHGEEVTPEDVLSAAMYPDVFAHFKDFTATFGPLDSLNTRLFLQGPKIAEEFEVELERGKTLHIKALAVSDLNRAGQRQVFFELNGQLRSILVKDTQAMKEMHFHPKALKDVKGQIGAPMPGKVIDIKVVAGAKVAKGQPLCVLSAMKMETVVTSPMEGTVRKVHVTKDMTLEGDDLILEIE

Ki [1]: 5 nM
Ki [2]: 4 nM
Substance: prohibitin (Phb1) (from UniProt P35232)
